Assay results from paper PMC4570711.

Target: human TrkA receptor (human) (UniProt P04629)
Sequence of UniProt P04629 (P04629 33-796): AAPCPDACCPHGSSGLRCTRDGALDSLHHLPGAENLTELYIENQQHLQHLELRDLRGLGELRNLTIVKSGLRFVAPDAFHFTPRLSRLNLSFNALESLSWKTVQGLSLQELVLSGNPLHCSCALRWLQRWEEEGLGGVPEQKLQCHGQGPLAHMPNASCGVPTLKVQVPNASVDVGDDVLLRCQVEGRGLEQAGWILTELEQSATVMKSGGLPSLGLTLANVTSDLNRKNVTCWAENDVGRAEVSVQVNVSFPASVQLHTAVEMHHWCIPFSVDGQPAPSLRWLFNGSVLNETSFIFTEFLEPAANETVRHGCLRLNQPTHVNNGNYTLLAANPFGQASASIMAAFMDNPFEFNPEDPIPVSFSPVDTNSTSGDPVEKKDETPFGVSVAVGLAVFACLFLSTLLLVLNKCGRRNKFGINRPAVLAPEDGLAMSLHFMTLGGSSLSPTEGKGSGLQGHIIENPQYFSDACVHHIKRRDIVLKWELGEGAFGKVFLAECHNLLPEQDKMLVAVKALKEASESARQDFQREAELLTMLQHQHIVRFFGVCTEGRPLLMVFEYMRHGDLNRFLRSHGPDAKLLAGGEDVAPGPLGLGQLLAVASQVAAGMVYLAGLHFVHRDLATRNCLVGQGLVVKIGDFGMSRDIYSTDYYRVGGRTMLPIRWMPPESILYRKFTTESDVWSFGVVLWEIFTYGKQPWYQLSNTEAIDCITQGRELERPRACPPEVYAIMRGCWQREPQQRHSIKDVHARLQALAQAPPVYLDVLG

Substance	TF1 cell proliferation, C50 (concentration of hNGF giving half of the maximum effect; 0.1–200 ng/ml) [ng/mL]
human Nerve Growth Factor P61S R100E double mutant (ligand)	8.1
human Nerve Growth Factor P61S mutant (ligand)	4.3
human Nerve Growth Factor R100E mutant ("painless" hNGF) (from UniProt P01138 122-241) (ligand)	10.9
